Measurements published in paper PMC4931317, “UtpA and UtpB chaperone nascent pre-ribosomal RNA and U3 snoRNA to initiate eukaryotic ribosome assembly” (Nature Communications, 2016).

Experiments:
Utp10-3C-GFP = target: T1, Utp10-3C-GFP (S. cerevisiae, UniProt P42945 1-1769); assay: pull-down; UtpA held via Utp10-GFP on anti-GFP nanobody sepharose (purified at 200 mM NaCl), then incubated 7 h at 4 °C in buffer with 400 mM NaCl; 3C elution; Coomassie-stained SDS-PAGE; details: partners not purified
T1 construct: Utp10, S. cerevisiae, subunit of UtpA (200 kDa); GFP is joined through a 3C protease site; it holds the protein on the beads in a1-a3 and is cleaved off by 3C on elution, so it is absent in the SEC step and in the DSS cross-linking (a6); also called Utp10-GFP; Utp10-sbp-H14-3C-GFP; source: S. cerevisiae YSK32, C-terminal tag integrated in the genome, endogenous level; captured from lysate on …

Utp4 = target: T2, Utp4 (S. cerevisiae, UniProt Q06679 1-776); assay: cross-linking; DSS (0.2 mM, H12/D12) cross-linking of SEC-purified endogenous UtpA, 25 °C, 30 min, 50 mM HEPES-NaOH pH 7.6, 200 mM NaCl, 1 mM EDTA; cross-linked peptides found by mass spectrometry (pLink); details: both partners purified
T2 construct: Utp4, S. cerevisiae, subunit of UtpA; No tag is named for it in either strain; strains are in Supplementary Data 1; source: endogenous, S. cerevisiae YSK32, co-purified with Utp10-GFP; overexpressed (galactose promoter) in S. cerevisiae YSK122, co-purified with Utp15-mCherry
T2 sequence (looked up): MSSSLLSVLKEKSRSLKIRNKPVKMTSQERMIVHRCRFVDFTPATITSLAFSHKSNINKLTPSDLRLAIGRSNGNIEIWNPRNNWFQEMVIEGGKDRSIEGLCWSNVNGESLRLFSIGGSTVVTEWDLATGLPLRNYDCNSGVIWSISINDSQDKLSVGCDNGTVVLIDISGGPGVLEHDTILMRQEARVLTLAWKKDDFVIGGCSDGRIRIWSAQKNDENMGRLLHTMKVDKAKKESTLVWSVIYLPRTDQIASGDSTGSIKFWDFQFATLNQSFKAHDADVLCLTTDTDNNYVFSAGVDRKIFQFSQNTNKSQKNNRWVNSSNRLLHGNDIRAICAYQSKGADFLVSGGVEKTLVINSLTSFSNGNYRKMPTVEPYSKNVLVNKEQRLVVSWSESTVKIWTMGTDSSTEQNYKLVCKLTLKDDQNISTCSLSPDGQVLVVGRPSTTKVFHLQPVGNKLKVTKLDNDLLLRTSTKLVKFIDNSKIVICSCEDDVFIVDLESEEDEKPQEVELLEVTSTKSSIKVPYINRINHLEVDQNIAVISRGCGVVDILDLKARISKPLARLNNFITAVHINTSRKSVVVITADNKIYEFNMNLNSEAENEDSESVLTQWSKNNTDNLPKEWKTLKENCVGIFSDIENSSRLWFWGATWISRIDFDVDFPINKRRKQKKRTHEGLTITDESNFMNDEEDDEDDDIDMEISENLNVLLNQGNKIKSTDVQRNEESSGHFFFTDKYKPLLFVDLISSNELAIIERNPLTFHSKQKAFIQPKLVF

T1 sequence (P42945 whole entry): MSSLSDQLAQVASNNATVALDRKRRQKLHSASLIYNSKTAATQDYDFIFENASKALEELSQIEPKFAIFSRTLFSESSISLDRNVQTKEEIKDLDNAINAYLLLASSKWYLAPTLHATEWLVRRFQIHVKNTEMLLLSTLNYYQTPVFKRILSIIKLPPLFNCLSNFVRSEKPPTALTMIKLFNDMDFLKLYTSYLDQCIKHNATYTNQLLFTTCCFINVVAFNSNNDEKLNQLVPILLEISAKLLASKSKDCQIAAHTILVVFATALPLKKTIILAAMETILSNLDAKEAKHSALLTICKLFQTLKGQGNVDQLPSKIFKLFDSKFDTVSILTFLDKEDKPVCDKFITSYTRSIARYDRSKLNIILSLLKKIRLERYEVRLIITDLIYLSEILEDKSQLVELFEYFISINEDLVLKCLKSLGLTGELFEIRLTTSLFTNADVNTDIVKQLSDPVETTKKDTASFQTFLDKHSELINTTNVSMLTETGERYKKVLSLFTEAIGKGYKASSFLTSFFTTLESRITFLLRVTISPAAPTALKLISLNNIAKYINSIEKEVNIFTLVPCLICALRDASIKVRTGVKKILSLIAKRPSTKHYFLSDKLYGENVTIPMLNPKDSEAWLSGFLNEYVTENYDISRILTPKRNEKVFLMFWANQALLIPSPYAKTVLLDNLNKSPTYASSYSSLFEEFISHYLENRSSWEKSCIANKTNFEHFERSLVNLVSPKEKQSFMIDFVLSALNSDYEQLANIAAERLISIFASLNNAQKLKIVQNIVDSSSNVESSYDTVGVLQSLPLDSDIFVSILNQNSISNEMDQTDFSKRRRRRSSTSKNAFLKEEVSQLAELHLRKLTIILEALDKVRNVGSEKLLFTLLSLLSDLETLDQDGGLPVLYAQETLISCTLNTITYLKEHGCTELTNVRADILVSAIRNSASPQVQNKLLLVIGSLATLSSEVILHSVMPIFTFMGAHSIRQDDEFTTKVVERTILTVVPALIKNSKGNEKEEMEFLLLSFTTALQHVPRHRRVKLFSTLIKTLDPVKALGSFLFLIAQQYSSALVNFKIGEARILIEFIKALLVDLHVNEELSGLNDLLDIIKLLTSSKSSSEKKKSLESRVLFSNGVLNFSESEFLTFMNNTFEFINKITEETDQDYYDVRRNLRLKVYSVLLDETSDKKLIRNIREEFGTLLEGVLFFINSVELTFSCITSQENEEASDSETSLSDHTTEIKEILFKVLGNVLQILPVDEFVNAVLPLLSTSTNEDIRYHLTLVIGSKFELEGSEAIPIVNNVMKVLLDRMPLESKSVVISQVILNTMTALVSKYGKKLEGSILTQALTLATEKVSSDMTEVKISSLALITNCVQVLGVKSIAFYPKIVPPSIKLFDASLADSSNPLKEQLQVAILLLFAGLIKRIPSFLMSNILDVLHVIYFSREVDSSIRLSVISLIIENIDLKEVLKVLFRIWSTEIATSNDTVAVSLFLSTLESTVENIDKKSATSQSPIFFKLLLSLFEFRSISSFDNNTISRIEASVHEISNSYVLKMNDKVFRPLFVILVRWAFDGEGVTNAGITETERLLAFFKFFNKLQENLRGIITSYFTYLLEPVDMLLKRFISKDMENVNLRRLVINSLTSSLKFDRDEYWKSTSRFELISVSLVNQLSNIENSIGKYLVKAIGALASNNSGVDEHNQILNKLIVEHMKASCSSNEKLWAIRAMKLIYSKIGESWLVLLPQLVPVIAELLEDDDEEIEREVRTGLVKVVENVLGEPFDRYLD

B1: Utp17 (Nan1) (natural protein, S. cerevisiae, UniProt Q02931 1-896, looked up)
chain: MTQSLGIEQYKLSVVSGGKPALNNLSSVTGNKNIARLSQDQRNYIIPFNNQIKVYSVETRQCVKTLKFANNSLLSGIFLQEEENNESIVKILLGDITVPQQEDAHLITVFTNNGHVIVLNYKGKLVESPKHFKISLADEKLANVFHSEGNYRILTTFKDPSQKAHNSLQSYRLYALTFDDAKKQFEVAHQAEWHNVILSNISSNGKLLAHMCKDVSTKDHEHKSISVVSLFDDSVNLSFPLGSILSSQTQSLSYNTRYVSSMAIDNMGQQLAVGFASGVISIVSLADLQIRLLKWHIDSVLSLSFSHDGSYLLSGGWEKVMSLWQLETNSQQFLPRLNGIIIDCQVLGPQGNYYSLILQMTENNSNSDYQFLLLNASDLTSKLSINGPLPVFNSTIKHIQQPISAMNTKNSNSITSLNHSKKKQSRKLIKSRRQDFTTNVEINPINKNLYFPHISAVQIFDFYKNEQVNYQYLTSGVNNSMGKVRFELNLQDPIITDLKFTKDGQWMITYEIEYPPNDLLSSKDLTHILKFWTKNDNETNWNLKTKVINPHGISVPITKILPSPRSVNNSQGCLTADNNGGLKFWSFDSHESNWCLKKISLPNFNHFSNSVSLAWSQDGSLIFHGFDDKLQILDFDTFKKFESLENTKTVSEFTLDSEIQTVKLINDTNLIVATRTTLNAINLLRGQVINSFDLYPFVNGVYKNGHMDRLITCDERTGNIALVINQQLTDLDGVPTINYKSRIIIFDSDLSTKLGNFTHHEYISWIGWNYDTDFIFLDIESTLGVVGTTVNTQLSDEVNNEGILDGLVSNTITTSASNSDIFAEQLHKLSSRGKKSDTRDKNTNDNDEDEEDIALEFINGEKKDKLVNMNSFTSMFDNIQNVQMDTFFDRVMKVLT
notes: Utp17 (Nan1), S. cerevisiae, subunit of UtpA (101 kDa); source: endogenous, S. cerevisiae YSK32, co-purified with Utp10-GFP
- binding result (Utp10-3C-GFP): binds

B2: Utp9 (natural protein, S. cerevisiae, UniProt P38882 1-575, looked up)
chain: MGSSLDLVASFSHDSTRFAFQASVAQKNNVDIYPLNETKDYVVNSSLVSHIDYETNDMKVSDVIFFGWCSDLIDTQSSNIKRKLDEDEGTGESSEQRCENFFVNGFPDGRIVVYSSNGKDIVNIIKNKKEILGADTDESDIWILDSDKVVKKLQYNNSKPLKTFTLVDGKDDEIVHFQILHQNGTLLVCIITKQMVYIVDPSKRRPSTKYSFEISDAVACEFSSDGKYLLIANNEELIAYDLKEDSKLIQSWPVQVKTLKTLDDLIMALTTDGKINNYKIGEADKVCSIVVNEDLEIIDFTPINSKQQVLISWLNVNEPNFESISLKEIETQGYITINKNEKNNADEADQKKLEEKEEEAQPEVQHEKKETETKINKKVSKSDQVEIANILSSHLEANSTEILDDLMSGSWTEPEIKKFILTKINTVDHLSKIFLTISKSITQNPWNEENLLPLWLKWLLTLKSGELNSIKDKHTKKNCKHLKSALRSSEEILPVLLGIQGRLEMLRRQAKLREDLAQLSMQEGEDDEIEVIEHSNVISNPLQDQASPVEKLEPDSIVYANGESDEFVDASEYKD
notes: Utp9, S. cerevisiae, subunit of UtpA; No tag is named for it in either strain; strains are in Supplementary Data 1; source: endogenous, S. cerevisiae YSK32, co-purified with Utp10-GFP; overexpressed (galactose promoter) in S. cerevisiae YSK122, co-purified with Utp15-mCherry
- binding result (Utp4): binds
